Data published in publication PMC3670040, “Structure of Lipid Kinase p110β/p85β Elucidates an Unusual SH2-Domain-Mediated Inhibitory Mechanism” (Molecular Cell, 2011).

Test system: p110β
Assay: Mass spectrometry assay of PIP3 production in vitro, brain lipids
Type: biochemical, mouse
Details: 10 nM protein, 100 μM ATP, 1 mg/ml lipid, 60 min; Figure S3A
Description: Figure S3, Related to Figures 1 and 2. Lipid Kinase Assays for p110β/p85 Constructs
(A) Lipid kinase activity of the p110β/p85β-nic, p110β/p85β-ni and p110β/p85β-ic, p110β C-terminal truncation/p85β-nic (ΔCter) and kinase dead (D913N) constructs as determined by mass spectroscopy. Error bars in panel A and other panels indicate SEM of four replicates.
(1 picture or pasted object on this page, not shown here)
Vesicles were "brain lipids" as in Figure S2. The protein concentration was 10 nM with 100 μM ATP and 1 mg/ml lipid. Reactions were carried out for 60 min. The bars show the integrated areas for the stearoyl-arachidonyl PtdIns(3,4,5)P3 peak.
(B) ATPase activity (no lipid substrate) of the wild-type and kinase dead p110β/p85β-nic construct in the absence and presence of 10 μM PDGF bis-phosphopeptide. Protein concentration was 75 nM with 100 μM ATP. Shaded bars represent activity for reactions with 5 μM added PI3K inhibitor GDC0941.
(C) Lipid kinase activity of a p110β/p85-icSH2 complex in which p110β Kα7/Kα8 elbow (966-KTGN) was replaced by the elbow of p110α (968-AQECTK). […]
The PIP3 lipids produced in PI3K in vitro assays as described above were also measured by a mass-spectrometry based assay (Clark et al.). […]

B1: p110β-ΔCter/nic: truncation mutant lacking 17 residues from the p110β C terminus; human ΔCter (1-1053) used in cells (protein, UniProt P42338 1-1053, looked up, fragment)
chain: MCFSFIMPPAMADILDIWAVDSQIASDGSIPVDFLLPTGIYIQLEVPREATISYIKQMLWKQVHNYPMFNLLMDIDSYMFACVNQTAVYEELEDETRRLCDVRPFLPVLKLVTRSCDPGEKLDSKIGVLIGKGLHEFDSLKDPEVNEFRRKMRKFSEEKILSLVGLSWMDWLKQTYPPEHEPSIPENLEDKLYGGKLIVAVHFENCQDVFSFQVSPNMNPIKVNELAIQKRLTIHGKEDEVSPYDYVLQVSGRVEYVFGDHPLIQFQYIRNCVMNRALPHFILVECCKIKKMYEQEMIAIEAAINRNSSNLPLPLPPKKTRIISHVWENNNPFQIVLVKGNKLNTEETVKVHVRAGLFHGTELLCKTIVSSEVSGKNDHIWNEPLEFDINICDLPRMARLCFAVYAVLDKVKTKKSTKTINPSKYQTIRKAGKVHYPVAWVNTMVFDFKGQLRTGDIILHSWSSFPDELEEMLNPMGTVQTNPYTENATALHVKFPENKKQPYYYPPFDKIIEKAAEIASSDSANVSSRGGKKFLPVLKEILDRDPLSQLCENEMDLIWTLRQDCREIFPQSLPKLLLSIKWNKLEDVAQLQALLQIWPKLPPREALELLDFNYPDQYVREYAVGCLRQMSDEELSQYLLQLVQVLKYEPFLDCALSRFLLERALGNRRIGQFLFWHLRSEVHIPAVSVQFGVILEAYCRGSVGHMKVLSKQVEALNKLKTLNSLIKLNAVKLNRAKGKEAMHTCLKQSAYREALSDLQSPLNPCVILSELYVEKCKYMDSKMKPLWLVYNNKVFGEDSVGVIFKNGDDLRQDMLTLQMLRLMDLLWKEAGLDLRMLPYGCLATGDRSGLIEVVSTSETIADIQLNSSNVAAAAAFNKDALLNWLKEYNSGDDLDRAIEEFTLSCAGYCVASYVLGIGDRHSDNIMVKKTGQLFHIDFGHILGNFKSKFGIKRERVPFILTYDFIHVIQQGKTGNTEKFGRFRQCCEDAYLILRRHGNLFITLFALMLTAGLPELTSVKDIQYLKDSLALGKSEEEALKQFKQKFDEALRESW
- activity with brain lipids: no measurable activity
